# Source: the DeepSol protein solubility set
# Assay: soluble on expression in E. coli; label from the status in PepcDB or PDB records
row,Sequence,soluble on expression in E. coli
1,MASSSSSSEHKVFLSFRREDTGRTFVSHLYRSLDQKEIRTYKFENQQAGDGKRISSEVKQAINESRIAVVVISENYVSSVLCLDVLAKIIERLPLIKIETVFYEVDPGDLTRPTGKFADDFRRHEARENRRTVNRWRDALDQLVSITNSNFCSRNWEDDSKMIDDLIIRLINIYFSKYYTPDVDIIAETTVGLDASVLGLMTDIDMKYKLNSLSGSVESGFGLERYALEATSVMDDMSNESPSPTSDDSNGLVGMYRHKKAVYGLLDLESKNQVRTIGIWGFQGVGKTTLAECVFDDISSHFQHYCFLTNANKIYQNRISPSLLKHLTRRRSSEDIFDAIKPSLVNRKVLFVVDGVDATYNEQFNDAMKVTRWLGPGSRIIMTSRFKSSLKFGGAKYEMECLRYEEALQLFSLYAFKKTYPLIGFELFSIRAVHFAGRLPLSLKVLGSFLYDKDEESWKRTLHKLEASQDNDRRYVSNYIGAGEYLPRRQIELEQYVSPDEEEYSPSYIMSL,soluble
2,MHNQAPIQRRKSTRIYVGNVPIGDGAPIAVQSMTNTRTTDVEATVNQIKALERVGADIVRVSVPTMDAAEAFKLIKQQVNVPLVADIHFDYRIALKVAEYGVDCLRINPGNIGNEERIRMVVDCARDKNIPIRIGVNAGSLEKDLQEKYGEPTPQALLESAMRHVDHLDRLNFDQFKVSVKASDVFLAVESYRLLAKQIDQPLHLGITEAGGARSGAVKSAIGLGLLLSEGIGDTLRVSLAADPVEEIKVGFDILKSLRIRSRGINFIACPTCSRQEFDVIGTVNALEQRLEDIITPMDVSIIGCVVNGPGEALVSTLGVTGGNKKSGLYEDGVRKDRLDNNDMIDQLEARIRAKASQLDEARRIDVQQVEK,soluble
3,MPTLQAAMFLEKDMQKNTLWFDSLSMQDVDKVGGKNASLGEMVSNLANAGVSVPNGFATTAYAFNQFLDFEGLDERIHQLLDELDVDDVDALRKTGATIRQWILQAPFPAELEQEIRTNYNQLIDGNSELSVAVRSSATAEDLPDASFAGQQETFLNVKGIDAVLEATKHVYASLFNDRAISYRVHQGFDHRGIALSAGIQRMVRSDKAASGVMFTLDTESGFDKVVFITAAWGLGEMVVQGAVNPDEFYVHKPLLEAGYPAIVKKTFGSKLSKMIYANSQVIGKQVEVVDTSAHERNQFSLTDAEIQELAKQALIIEKHYQRPMDIEWAKDGIDGKLYIVQARPETVCSQSEQNVIERYELSHKASVLLEGRAIGQRIGSGTVRLVDSLDQMSLVQQGDVLVTDMTDPDWEPVMKKAAAIVTNRGGRTCHAAIIARELGIPAIVGCGDATRRLSDGAQVTVSCAEGETGYVYAGQLDFAVRRSSVDELPMLPTKVMMNVGNPDRAFDFAQIPNEGVGLARLEFIINKMIGIHPKALLNFDTQSAELQTQILDRIRGYRDPIDFYVSKLTEGIATIAAAFWPKRVIVRMSDFKSNEYSNLLGGSEFEPHEENPMLGFRGASRYISPVFEDCFELETQAIKRVRHEMGLKNVEVMIPFVRTTGEAEAVIDLLAKFGLRRGEQGLKVIMMCELPSNAVLADEFLKFFDGFSIGSNDMTQLTLGLDRDSGDVAHLFDERNPAVKIMLKMAIDAATRAGKYVGICGQGPSDHDDLAQWLMEQGISSVSLNPDTVIDTWLKLGAVSKC,not soluble
4,MGSDKIHHHHHHVSGPGLLPFRLTICGIDELPDHAAAGVSHVVTILDPQWPDPEHFALYPPHSRTIWRFHDIVNPQEGQAHPTMRDVEAILDYGTALKTETVEHLLIHCHMGISRSTATAIILMAQHNPGREAEAFTHLKAIRPFSWPNSRMVRMADDQLKRKGALVDAMRLHHHGVARRHPDKMAYLRTSERAAEVPPEE,not soluble
5,MQDGESNFPLLLLPENAKKHVLRTMDVDFLLSLSFCSKRTKHIVQSLKLKFEHFKMDLLGKTKLMINFRSTTILLVFNALYGDKAWKDVFRTVVSTGPPNARYYNTNFFKSFGWERKELAVEDTIYHIFDILNTNVIDVFLDCNNRNMFFFEKLSQTFRERNVRRISLGSMQNPIFNSFSYLENSLRNQFLELEGLAYLRELYRTLQEEHKILIQNFNYLNPNLPSTGKMTLNELLLINSSHITLTFNEMALNEKSLNIFLKHWINGSNKKLDYMYLSGFTQLGETSVAIEAILKRIVHKEASHDRLFKKFYDPGSNGNIGDNSSSLKHGFDIISNDGTPATASIRISEGVIYFQMKVWDQ,not soluble
6,MLEFETNIDGLASIKVIGVGGGGNNAVNRMIENEVQGVEYIAVNTDAQALNLSKAEVKMQIGAKLTRGLGAGANPEVGKKAAEESKEQIEEALKGADMVFVTAGMGGGTGTGAAPVIAQIAKDLGALTVGVVTRPFTFEGRKRQLQAAGGISAMKEAVDTLIVIPNDRILEIVDKNTPMLEAFREADNVLRQGVQGISDLIATPGLINLDFADVKTIMSNKGSALMGIGIATGENRAAEAAKKAISSPLLEAAIDGAQGVLMNITGGTNLSLYEVQEAADIVASASDQDVNMIFGSVINENLKDEIVVTVIATGFIEQEKDVTKPQRPSLNQSIKTHNQSVPKRDAKREEPQQQNTVSRHTSQPADDTLDIPTFLRNRNKRG,soluble
7,MGSDKIHHHHHHMCNYNQLFENIAELVMHHSPSGAEAEINQLLLQKFAALGVEVWSDRADNIIAKIPGKNSERAVAITAHKDEIGAIVKNIGDAGKVEVRKLGGAYPWVYGEGVVDLLGDNETISGILSFGSRHVSHESPQKVQQEDTAVKWENAWIETKRTTEELEIAGIRPGTRMVIGKHRKHPVKLQDHIASYTLDNKASVAILLALAQQLKQPAMDVYLVASAKEEVGAIGALFFTQNQQLDALIALEICPLSEEYPVKDSENPVLLIQDAYGIYDEGLNGELRQCAKQLNMPVQLTTLSGFGSDASIAMKFGHVGRAACLAFPTQNTHGYEIAHLGAISNCINLLKAFCETEF,not soluble
8,MGSDKIHHHHHHMTVHWRERVGNQRDWVWRGWRTRYTYIRPSQEGQEKTPLILLHGFGASIGHWRHNLEVLGESHTVYALDMLGFGGSEKAPANYSIELWVEQVYDFWRAFIRQPVVLIGNSNGSLISLAAAAAHPDMVKGIVMMSLPDPSLEQEMIPPFLRPVVTTIKNIVASPIFLKPVFYFVRRPSILRRWAGIAYANPAAITDELVDILAGPPQDRGSARAFSALFKAAIGVNFSPSVKAILPTLQIPMLLIWGNKDRFVPPILANQFAQYNEKLQLLNLDDVGHCPHDECPEQVNKAILAWMDKSLGDY,not soluble
9,MGSDKIHHHHHHMTLSEYLQQLTQFKTIEELWRAHVQQMSRYGFDRLLYGYTLFKTRTSLGDPDDFVILTNHCPEYLQGFLADGLYAHAPMLTWALENEGHASWRVSQEMAAQGLLDKQARKVQDFNQSMGVHAGYTISFNSASERFKGAISLAARADLDQDGIDQIWAEHGADIVLMNNVAHLKILTLPYHAPKRGLTKRQREVLQWVGDGKTTQDIALLMGLTPATIEKHLRLARATLSVETTAQAVLKAALHNQMYAVEH,not soluble
10,MSLMPPFLRILGIETSCDETAASIVVRHADGRGEIVSDVVLSQLEEHSAYGGVVPEIAARAHVEALDTLVEEALDQAGVKLADVDAIAATSGPGLIGGLLVGLMTGKAIAKAAGKPLYAINHLEGHALTARLTDGLSFPYLMLLVSGGHTQLVLVRGVGEYERWGTTIDDALGEAFDKTAKLLGLPYPGGPAVENAAAKGDPDRFPLPRPMVGEARLDFSFSGLKTAVRQAATAIAPLSEQDIADICASFQKAVSRTLKDRIGRGLARFKVEFPHINGEPALVVAGGVAANQEIRQTLQALCDTHGFRFVAPPHRLCTDNAAMIAWAGLERMAEGRQADALEVAPRSRWPLDGSAETLIGFGKRGAKAEGHHHHHH,not soluble
11,MNVREPEITSVTDLTDKELTQQWKIIDWKRVKEVVNNLQSRIASAAKSGNWKTVNKLSRLLTRSFYAKLLSIRKVTTNKGSRTPGIDGIIWSSSADKMRAALQLTNKGYRAKPLTRKYIRKKSGKLRPLSIPTMYDRAMQTLHSLVLGAIESAAGDKTSFGFKPYRSTKDAYAYLHLCLSKKVSPEWIVEGDIKACFDEISHNWILDNIPIDKRILKEFLKAGYIENYHLFPTEKGTPQGGPISPIIGNMSLNGLENALAMRFYSRSDGTIDKSHQNRRKVNYVRFADDLVVTADSPETALEIIDVIQAFLDPRGLKLSEEKTLVTNISEGFNFLGWNFRKYKGKLLPKPSKDSQKEIIKKIRDVLHKAKAWDQDRLIQTLNPIIRGWAEYHNHAVSSAIFNKLDEIVYNMLISWAKRRHSNKGFTWITTKYWHKSGKRKYVFCTELQTLERFSNAKIVRQRLASLNKNPFIDKEYFEQWKFMEYHRKKRITNPNSVLNLEHHHHHH,not soluble
12,HTDPGDVVIEELFNRIPETSVWNENERVLSNANHLVSTALWRNEQSFRVESELGERPRTLVRGPVLRDDGSYICLEATDQETGEPLEVHVPYFTERPPSNAIKQLSEQVLRLRLLRGIKNQRQAKAYLRFIFPIDLVKDPKKRKMIRVRLDERDMWVLSRFFLYPRMQSNLHILGDVLLSHSSTHKSLVHHARLQLTLQLIRLAASLQHYGLVHADFQVRNILLDQRGGVFLTGFEHLVRDGASAVSPIGRGFAPPETTAERMLPYRQHHPTLMTFPFDTWTLGLAIYWIWCADLPNTEDAELGGIEWIYRRCKNIPQPVRALLEGFLRYSKEDRLLPLQAMETSEYEQLRTELSAVLPLYQTDGEPA,soluble
13,MSLDLKRLKGSERVRKRVSVMMGSDDIRGCQHTLFEIVSNSIDRHRKGFGNYIKVIKHEDLSYTIIDHADGLPMDWNEKEHAYNWDLALKVLYAGDNYDANSTALGLNGLGLCSSQYASEFMEVISYKEDKKYTVKCKKGRPIDKETGEFICEDDDNLFTKEQGNRVLLVESNTENKTGTYIHYKPDLEVFTNIDISIDWINDKLDKQSMVNKGLKIEIYDEKEDRLYTHFYESGIKDYIKTISNDNNFSDVIYFTDKGKGRDKADKPEYDYNYEIALVFNNEINRLEYYHNSSELLQGGSTSDAISLAFTYAINEYAKNNNVFNKNESKIKFTDIQDSLICVISSFSTMTSYANQTKLSIDNKFIKDFTNQSLKEKLKLYFIENKLEADRIVNQILINKRANDKAEKSKIEIRNKEGHHHHHH,soluble
14,METKAKNKTQLAYEYILSRIENGVYGPGYRVVIDQIARELGLSSIPVREAIRQLEAEGLVEFKPYTGAVVSNINEKEYIETLSVLAVLEGYATALGSANLTKEAINELERLNERMERALEELELERFSELNYEFHSLIYAHCGNAYLEEQIKQIWQRMKRIRVYGFTFVPQRAKASIEEHREIIRLLHEQAPPHEIEQYVRQHKINTAEAFKRRR,not soluble
15,IAAGGSHVEAAPQEEWKKHFIHTGELGSAEFASVMSHTTSAMKSVFEQVNAPYSGMDPKALEDAINAVDLDNKNAPLKSVIDDVAELVAKNAIFTQHPDCIAHLHTPPLMPAVAAEAMIAALNQSMDSWDQASSATYVEQKVVNWLCDKYDLSEKADGIFTSGGTQSNQMGLMLARDWIADKLSGHSIQKLGLPDYADKLRIVCSKKSHFTVQKSASWMGLGEKAVMTVDANADGTMDITKLDEVIAQAKAEGLIPFAIVGTAGTTDHGAIDDLDFIADMAVKHDMWMHVDGAYGGALILSSHKSRLKGVERAHSISVDFHKLFYQTISCGALLVNDKSNFKFLLHHADYLNREHDELPNLVDKSIATTKRFDALKVFMTMQNVGPKALGDMYDHLLAQTLEVADMIRTNDQFELLAEPSLSTVLFRATHETADLDELNKALRLEALTRGIAVLGETIVDGKTALKFTILNPCLTTSDFESLLSKINMLAVELV,soluble
16,MGHHHHHHSHMPATLLRAVARSHHILSKAHQCRRIGHLMLKPLKEFENTTCSTLTIRQSLDLFLPDKTASGLNKSQILEMNQKKSDTSMLSPLNAARCQDEKAHLPTMKSFGTHRRVTHKPNLLGSKWFIKILKRHFSSVSTETFVPKQDFPQVKRPLKASRTRQPSRTNLPVLSVNEDLMHCTAFATADEYHLGNLSQDLASHGYVEVTSLPRGTSS,not soluble
